How the values were obtained:
[1] = molecular target: CLEC-2 C-type lectin-like domain (Mus musculus) (UniProt Q9JL99); assay: SPR; settings: cited from earlier work
[2] = molecular target: CLEC-2 C-type lectin-like domain (Homo sapiens) (UniProt Q9P126); assay: SPR; settings: cited from earlier work
[3] = molecular target: the molecule itself; assay: divalent nanobody Nb2-2 (100 nM)

CLEC-2 C-type lectin-like domain (Mus musculus), sequence (Q9JL99 109-217): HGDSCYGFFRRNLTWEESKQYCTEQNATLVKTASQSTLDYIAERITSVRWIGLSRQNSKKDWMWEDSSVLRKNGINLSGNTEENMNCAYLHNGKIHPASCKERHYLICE
CLEC-2 C-type lectin-like domain (Homo sapiens), sequence (Q9P126 109-217): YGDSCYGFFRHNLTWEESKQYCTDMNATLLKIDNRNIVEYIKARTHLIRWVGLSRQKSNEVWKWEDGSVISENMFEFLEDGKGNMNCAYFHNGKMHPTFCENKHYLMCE

CLEC-2 C-type lectin-like domain (from UniProt Q9JL99)
Kd [1]: 499 nM

CLEC-2 C-type lectin-like domain (from UniProt Q9P126)
Kd [2]: 278 nM

B1: SNAP-tag-GPVI and HaloTag-GPVI coexpressed on CHO-K1 cells (receptor)
chain: QSGPLPKPSLQALPSSLVPLEKPVTLRCQGPPGVDLYRLEKLSSSRYQDQAVLFIPAMKRSLAGRYRCSYQNGSLWSLPSDQLELVATGVFAKPSLSAQPGPAVSSGGDVTLQCQTRYGFDQFALYKEGDPAPYKNPERWYRASFPIITVTAAHSGTYRCYSFSSRDPYLWSAPSDPLELVVTGTSVTPSRLPTEPPSPVAEFSEATAELTVSFTNEVFTTETSRSITASPKESDSPAGPARQYYTKGNLVRICLGAVILIILAGFLAEDWHSRRKRLRHRGRAVQRPLPPLPPLPLTRKSNGGQDGGRQDVHSRGLCS
modifications: SNAP-tag labeled with SNAP-Surface Alexa Fluor-647; HaloTag labeled with Janelia Fluor-549
koff [3]: 0.95 s⁻¹

Reference: paper PMC13181292 (2026)
